Drawing on patent publication US20080119640A1, this text covers pSTAT1 % (PEGASYS fixed as 100%) and pSTAT1 EC50 (pM) for 25 substances.

Where “and” joins values, the source holds several entries; their conditions need not be identical. Identical values can stand only once.

For the experiment, the target named is T1, IFNα receptor 2 (IFNAR2) on THP-1 cells (human) (UniProt P48551).
T1 sequence (looked up): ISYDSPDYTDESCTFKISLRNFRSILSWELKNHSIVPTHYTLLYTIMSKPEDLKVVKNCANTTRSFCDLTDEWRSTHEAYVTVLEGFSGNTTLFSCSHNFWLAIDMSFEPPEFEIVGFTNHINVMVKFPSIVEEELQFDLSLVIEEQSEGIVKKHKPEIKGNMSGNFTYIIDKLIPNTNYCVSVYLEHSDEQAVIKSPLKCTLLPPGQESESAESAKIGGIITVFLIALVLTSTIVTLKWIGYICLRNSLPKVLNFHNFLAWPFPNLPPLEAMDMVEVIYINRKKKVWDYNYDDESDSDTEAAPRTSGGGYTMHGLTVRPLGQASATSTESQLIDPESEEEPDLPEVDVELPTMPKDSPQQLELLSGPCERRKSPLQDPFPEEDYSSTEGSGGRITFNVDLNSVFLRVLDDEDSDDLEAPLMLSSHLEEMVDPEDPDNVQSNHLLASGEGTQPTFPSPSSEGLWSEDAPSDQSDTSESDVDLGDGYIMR
As to the kind of experiment: cell-based or functional assay.
As to “6HisC1G/C98 IFNα-2a + limitin loop (from UniProt P01563 25-188) (ligand)”, the pSTAT1 % (PEGASYS fixed as 100%) was 6.27% and 7.27%; the pSTAT1 EC50 (pM) is 30 pM and 34.8 pM.
“6His E113pAF-30K PEG (from UniProt P01563 24-188) (ligand)” displayed a pSTAT1 % (PEGASYS fixed as 100%) of 54.7% and a pSTAT1 EC50 (pM) of 262 pM.
“6His G37pAF (from UniProt P01563 24-188) (ligand)”: the pSTAT1 % (PEGASYS fixed as 100%) was found to be 4.55% and the pSTAT1 EC50 (pM) was 21.8 pM.
On to “6His K134pAF-30K PEG (from UniProt P01563 24-188) (ligand)”, for which the pSTAT1 % (PEGASYS fixed as 100%) was found to be 22.5%.
Substance “PEGASYS® (Peginterferon alfa-2a) (from UniProt P01563 24-188) (ligand)” yielded a pSTAT1 % (PEGASYS fixed as 100%) of 100% and a pSTAT1 EC50 (pM) of 479 pM.
The like results for “6His E41pAF-30K PEG (from UniProt P01563 24-188) (ligand)” were, in that order, 25.2% and 120 pM.
In the case of “6His E107pAF-30K PEG (from UniProt P01563 24-188) (ligand)”, the pSTAT1 % (PEGASYS fixed as 100%) is 22.3% and 7.27%.
For “6His H34pAF-30K PEG (from UniProt P01563 24-188) (ligand)”, the pSTAT1 % (PEGASYS fixed as 100%) worked out at 33.6% and the pSTAT1 EC50 (pM) amounted to 161 pM.
Take “6His E107pAF (from UniProt P01563 24-188) (ligand)”: the pSTAT1 % (PEGASYS fixed as 100%) turned out to be 6.43% and the pSTAT1 EC50 (pM) is 30.8 pM.
Taken in the same sequence, the figures for “6His R12pAF-30K PEG (from UniProt P01563 24-188) (ligand)” were 138% and 660 pM.
“6His L117pAF-30K PEG (from UniProt P01563 24-188) (ligand)” came in with a pSTAT1 % (PEGASYS fixed as 100%) of 50.6% and a pSTAT1 EC50 (pM) of 242 pM.
On to “6His N65pAF-30K PEG (from UniProt P01563 24-188) (ligand)”, for which the pSTAT1 % (PEGASYS fixed as 100%) was over 532% and the pSTAT1 EC50 (pM) is over 2860 pM.
The substance “6His T106pAF-30K PEG (from UniProt P01563 24-188) (ligand)” yielded a pSTAT1 % (PEGASYS fixed as 100%) of 28.4%.
For the substance “6His R125pAF-30K PEG (from UniProt P01563 24-188) (ligand)”, the pSTAT1 % (PEGASYS fixed as 100%) amounted to 47% and the pSTAT1 EC50 (pM) worked out at 225 pM.
In turn, “6His K31pAF-30K PEG (from UniProt P01563 24-188) (ligand)” registered a pSTAT1 % (PEGASYS fixed as 100%) of 62.5%.
“6His H34pAF (from UniProt P01563 24-188) (ligand)”: the pSTAT1 % (PEGASYS fixed as 100%) was 25%.
The substance “6His F27pAF-30K PEG (from UniProt P01563 24-188) (ligand)” showed a pSTAT1 % (PEGASYS fixed as 100%) of 66% and a pSTAT1 EC50 (pM) of 316 pM.
Taken in the same sequence, the figures for “6His P39pAF-30K PEG (from UniProt P01563 24-188) (ligand)” were 52.9% and 253 pM.
As to “6His E41pAF (from UniProt P01563 24-188) (ligand)”, the pSTAT1 % (PEGASYS fixed as 100%) worked out at 3.97% and the pSTAT1 EC50 (pM) worked out at 19 pM.
The like results for “6His G37pAF-30K PEG (from UniProt P01563 24-188) (ligand)” were, in that order, 40.3% and 193 pM.
The substance “6His K31pAF (from UniProt P01563 24-188) (ligand)” yielded a pSTAT1 % (PEGASYS fixed as 100%) of 10.2%.
The substance “6His F38L (from UniProt P01563 24-188) (ligand)” gave a pSTAT1 % (PEGASYS fixed as 100%) of 2.72% and a pSTAT1 EC50 (pM) of 13 pM.
Substance “6His F38S (from UniProt P01563 24-188) (ligand)” came in with a pSTAT1 % (PEGASYS fixed as 100%) of 3.76%.
On the same count and under the same terms, as for “6His N45pAF-30K PEG (from UniProt P01563 24-188) (ligand)”, the figure is 18.2%.
“6His L110pAF-30K PEG (from UniProt P01563 24-188) (ligand)” registered a pSTAT1 % (PEGASYS fixed as 100%) of 27.8% and a pSTAT1 EC50 (pM) of 133 pM.
